Series [1] concerns the molecule itself. Nature of the series: sucrose density gradient centrifugation; 2.5 to 25% sucrose gradient in PBS, 132,000g for 19 h; fractions by SDS-PAGE and western with anti-ARV1; markers ovalbumin (50 kDa), bovine serum albumin (77 kDa), phosphorylase (103 kDa).
In series [2] the target is T1, 6XHIS-ARV1 (full-length human ARV1, N-terminal 6XHIS tag) (human, UniProt Q9H2C2 1-271).
T1 construct: human ARV1, 271 amino acids, full length, expressed from pET-28a(+)-6XHIS-ARV1; also called hARV1; not shown: 6XHIS, N-terminal, kept
T1 sequence (looked up): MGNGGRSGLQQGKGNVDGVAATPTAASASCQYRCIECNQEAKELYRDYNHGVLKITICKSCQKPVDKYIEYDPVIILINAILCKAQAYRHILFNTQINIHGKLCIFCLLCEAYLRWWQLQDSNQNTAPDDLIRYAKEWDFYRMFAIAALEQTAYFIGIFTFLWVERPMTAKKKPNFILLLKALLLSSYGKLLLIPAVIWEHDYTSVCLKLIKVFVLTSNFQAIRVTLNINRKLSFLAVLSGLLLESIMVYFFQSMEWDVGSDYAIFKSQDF
Nature of the series: far-Western, overlay or dot blot; GST, GST-ARV1 truncations and 6XHIS-ARV1 dotted onto nitrocellulose, incubated with 6XHIS-ARV1 protein, probed with anti-6XHIS (and anti-GST) antibodies. Conditions: both partners purified.

B1: E. coli expressed purified full-length ARV1 (sucrose density gradient) (natural protein, human, UniProt Q9H2C2 1-271, looked up)
chain: MGNGGRSGLQQGKGNVDGVAATPTAASASCQYRCIECNQEAKELYRDYNHGVLKITICKSCQKPVDKYIEYDPVIILINAILCKAQAYRHILFNTQINIHGKLCIFCLLCEAYLRWWQLQDSNQNTAPDDLIRYAKEWDFYRMFAIAALEQTAYFIGIFTFLWVERPMTAKKKPNFILLLKALLLSSYGKLLLIPAVIWEHDYTSVCLKLIKVFVLTSNFQAIRVTLNINRKLSFLAVLSGLLLESIMVYFFQSMEWDVGSDYAIFKSQDF
notes: human ARV1, full length; detected with anti-ARV1 antibodies; also called purified ARV1; source: E. coli, purified
With B1, the “stoichiometry N” value in series [1] is 2.

B2: GST-ARV1-N90 (domain or fragment, human, UniProt Q9H2C2 1-90, looked up)
chain: MGNGGRSGLQQGKGNVDGVAATPTAASASCQYRCIECNQEAKELYRDYNHGVLKITICKSCQKPVDKYIEYDPVIILINAILCKAQAYRH
notes: human ARV1, amino-terminal 90 amino acids, expressed from pGEX-4T1-GST-N90; also called GST-N90; source: E. coli BL21, purified (glutathione beads); not shown: GST, N-terminal, kept
For B2, the binding result in series [2] is “binds”.

Broadly, the stoichiometry N is the number of molecules, sites or subunits per partner or assembly.

Source of the values: PMC11952846, “The sterol-regulating human ARV1 binds cholesterol and phospholipids through its conserved ARV1 homology domain” (The Journal of Biological Chemistry, 2025).
